The target in the assay is T1, recombinant human interferon-alpha/beta R2 receptor Fc chimera (R&D Systems, Product 4015-AB) (human, UniProt P48551 27-243).
T1 construct: Bought reagent, coated onto ELISA plates; also called rhIFN-R2 Fc; Fc part of the bought chimera not given
T1 sequence (looked up): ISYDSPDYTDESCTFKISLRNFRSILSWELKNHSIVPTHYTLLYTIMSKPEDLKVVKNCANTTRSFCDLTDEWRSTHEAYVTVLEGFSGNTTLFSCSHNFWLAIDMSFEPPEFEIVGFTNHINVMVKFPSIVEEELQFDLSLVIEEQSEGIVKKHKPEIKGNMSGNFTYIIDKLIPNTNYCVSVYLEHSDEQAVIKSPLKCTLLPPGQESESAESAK
Briefly: Receptor binding (competition): displacement of 125I-IFN-alpha from plate-coated rhIFN-R2 Fc; untreated and RP-HPLC-purified samples. The protocol:
Receptor binding competition assays were performed using purified rhIFN-beta1b from Bar 25 protein and BETASERON, and unprocessed Bar 25 protein and BETASERON. The assay was performed using the recombinant human interferon-alpha/beta R2 receptor Fc (rhIFN-R2 Fc) chimera (R&D Systems, Product 4015-AB). This receptor binds both interferon-alpha and interferon-beta. ¹²⁵I-human interferon-alpha (¹²⁵I-IFN-alpha) was used as the competing reagent to avoid potential effects of radiolabeling on the rhIFN-beta1b products. rhIFN-R2 Fc was coated onto ELISA plates and ¹²⁵I-IFN-alpha was added at a fixed concentration to each well. […] Unlabeled IFN-alpha was used as a control. The amount of ¹²⁵I-IFN-alpha remaining bound to rhIFN-R2 Fc after the competition was measured and plotted as a function of the rhIFN-beta1b concentration. The resulting curves for each product and purified rhIFN-beta1b sample were compared.

B1: Bar 25 protein (recombinant human interferon beta-1b, C17S IFN-beta-1b, refolded under high pressure) (ligand)
chain: SYNLLGFLQRSSNFQSQKLLWQLNGRLEYCLKDRMNFDIPEEIKQLQQFQKEDAALTIYEMLQNIFAIFRQDSSSTGWNETIVENLLANVYHQINHLKTVLEEKLEKEDFTRGKLMSSLHLKRYYGRILHYLKAKEYSHCAWTIVRVEILRNFYFINRLTGYLRN
notes: Non-glycosylated, expressed in E. coli; It was tested untreated and after RP-HPLC/SEC-HPLC isolation; The research-grade material was partially deamidated; also called rhIFN beta-1b; rhIFN-beta1b
As to B1, the binding result was “binds”.
